B1: SPRY domain-containing SOCS box protein 2 (Mus musculus), O88838 (parent)
chain: MGQTALARGSSSTPTSQALYSDFSPPEGLEELLSAPPPDLVAQRHHGWNPKDCSENIDVKEGGLCFERRPVAQSTDGVRGKRGYSRGLHAWEISWPLEQRGTHAVVGVATALAPLQADHYAALLGSNSESWGWDIGRGKLYHQSKGLEAPQYPAGPQGEQLVVPERLLVVLDMEEGTLGYSIGGTYLGPAFRGLKGRTLYPSVSAVWGQCQVRIRYMGERRVEEPQSLLHLSRLCVRHALGDTRLGQISTLPLPPAMKRYLLYK
partner: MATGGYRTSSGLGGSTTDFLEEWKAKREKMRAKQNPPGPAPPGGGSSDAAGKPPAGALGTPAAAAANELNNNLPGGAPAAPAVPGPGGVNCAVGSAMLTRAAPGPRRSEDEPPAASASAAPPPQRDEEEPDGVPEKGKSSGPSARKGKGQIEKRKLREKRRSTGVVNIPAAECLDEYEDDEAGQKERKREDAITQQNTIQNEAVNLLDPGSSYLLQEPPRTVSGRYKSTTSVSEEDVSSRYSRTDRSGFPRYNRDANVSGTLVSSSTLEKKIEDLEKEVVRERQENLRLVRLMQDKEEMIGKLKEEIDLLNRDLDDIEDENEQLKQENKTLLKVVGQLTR

Variants of: B1
Settings: with pawr_human PAWR

| Variant | effect of a mutation on the interaction |
| --- | --- |
| MGQTALARGSSSTPTSQALYSDFSPPEGLEELLSAPPPDLVAQRHHGWNPKDCSENIDVKEGGLCFERRPVAQSTDGVRGKRGYSRGLHAWEISWPLEQRGTHAVVGVATALAPLQADHYAALLGSNSESWGWDIGRGKLYHQSKGLEAPQYPAGPQGEQLVVPERLLVVLDMEEGTLGYSIGGTYLGPAFRGLKGRTLYPSVSAAWGQCQVRIRYMGERRVEEPQSLLHLSRLCVRHALGDTRLGQISTLPLPPAMKRYLLYK [V206A] | disrupting interaction |
| MGQTALARGSSSTPTSQALYSDFSPPEGLEELLSAPPPDLVAQRHHGWNPKDCSENIDVKEGGLCFERRPVAQSTDGVRGKRGYSRGLHAWEISWPLEQRGTHAVVGVATALAPLQADHYAAAAASNSESWGWDIGRGKLYHQSKGLEAPQYPAGPQGEQLVVPERLLVVLDMEEGTLGYSIGGTYLGPAFRGLKGRTLYPSVSAVWGQCQVRIRYMGERRVEEPQSLLHLSRLCVRHALGDTRLGQISTLPLPPAMKRYLLYK [L123A;L124A;G125A] | disrupting interaction strength |
| MGQTALARGSSSTPTSQALYSDFSPPEGLEELLSAPPPDLVAQRHHGWNPKDCSENIDVKEGGLCFERRPVAQSTDGVRGKRGYSRGLHAWEISWPLEQRGTHAVVGVATALAPLQADHYAALLGSNSESWGWDIGRGKLYHQSKGLEAPAAPAGPQGEQLVVPERLLVVLDMEEGTLGYSIGGTYLGPAFRGLKGRTLYPSVSAVWGQCQVRIRYMGERRVEEPQSLLHLSRLCVRHALGDTRLGQISTLPLPPAMKRYLLYK [Q151A;Y152A] | disrupting interaction strength |
| MGQTALARGSSSTPTSQALYSDFSPPEGLEELLSAPPPDLVAQRHHGWNPKDCSENIDVKEGGLCFERRPVAQSTDGVRGKRGYSRGLHAWEISWPLEQRGTHAVVGVATALAPLQADHYAALLGSNSESWGWDIGRGKLYHQSKGLEAPQYPAGPQGEQLVVPERLLVVLDMEEGTLGYSIGGTYLAAAFRGLKGRTLYPSVSAVWGQCQVRIRYMGERRVEEPQSLLHLSRLCVRHALGDTRLGQISTLPLPPAMKRYLLYK [G188A;P189A] | disrupting interaction strength |
| MGQTALARGSSSTPTSQALYSDFSPPEGLEELLSAPPPDLVAQRHHGWNPKDCSENIDVKEGGLCFERRPVAQSTDGVRGKRGYSRGLHAWEISWPLEQRGTHAVVGVATALAPLQADHYAALLGSNSESWGWDIGRGKLAAASKGLEAPQYPAGPQGEQLVVPERLLVVLDMEEGTLGYSIGGTYLGPAFRGLKGRTLYPSVSAVWGQCQVRIRYMGERRVEEPQSLLHLSRLCVRHALGDTRLGQISTLPLPPAMKRYLLYK [Y141A;H142A;Q143A] | disrupting interaction strength |
| MGQTALARGSSSTPTSQALYSDFSPPEGLEELLSAPPPDLVAQRHHGWNPKDCSENIDVKEGGLCFERRPVAQSTDGVRGKRGYSRGLHAWEISWPLEQRGTHAVVGVATALAPLQADHAAALLGSNSESWGWDIGRGKLYHQSKGLEAPQYPAGPQGEQLVVPERLLVVLDMEEGTLGYSIGGTYLGPAFRGLKGRTLYPSVSAVWGQCQVRIRYMGERRVEEPQSLLHLSRLCVRHALGDTRLGQISTLPLPPAMKRYLLYK [Y120A] | disrupting interaction |

Source: IntAct's records for PubMed 16369487
